In a protein production outcome set (Wang et al. 2014) one finds protein production data, which are given here for 15 sequences.

This data set in a line: label from the status in PepcDB records.

In the case of “MFITLSERFGLLLAGGFAIMTLAPLDKLGPGRTRSWRATALLVVLFSLFTILGTYNGNIVFQSFANLRAMGAVTAGLFGGPMVGALTGLIAGGHRYFIDVGGFSAVPCGLATFLEGLAAGLFAWRFPSRSLDWGTAMTFAAVGEAVHMCLVLGLARPYAQAVDLVEVIGLPMILLNGVGAAIFVQALRMQMHFRDLRDSSQARQILSIANRTLPHLRAGLSAASARATAEIILDETRVAAVALTSNDMVMAHVGAASDHHRAGHSVCTQATRRVATDGIPLFVTGHDEIGCQLEACPLCSAIIVPLRKGDTILGCLKLYGTKDRPLDQTLFELAKGLADLFATQIELEDIGIKNQLLARAEIRRLQAQINPHFLFNSLNTVASFCRTAPGQARELILDLARYMRRNLDTSREAIHLAEEVEQIRAYLVIEKARFGERIRAVIDIDPETEHCLVPPLLIQPLVENSVRHGILGNEEGGVVRLATSMEDGHVVVVVEDDGAGMPESTRQGILNGTPVTAHGEGIGASNCNQRLVQLYGPAYALSIDSAPGMGTRITFRVPASTDAEVFASAAA”, the protein production result is on record as “failed”. With “MFKELHPNIRARILIQFLSKIIGSMIFPFMAIYFSMEINSKVAGILLMINVLAQFLAGMYGGHLADIIGRKKLMVAGELLKVFAFLGMVLCNSPVFHSPWITFVMLLLIGVAQGLINPAGEAMLIDVSTPENRSFMYSVSYWANNLSMMIGIIVGGWFFIDYLFPLLVALFIMSFVTAWLTISLISETLKQKAVLKKGSYGLVGMLKNYGQVLHDCRFLLYTLGGIAVMSIEFQRSNYISVRLAEDFQALLVHFGPLGNITLNGVQIVSVLTAVNTLFIVLFTVPVARFVTKRAQQPIMYVGFTLFAIGFAVCAFANNLAVLLLATAVLSIGELLYVPTRQTILAAIVDDNRRGAYMAFNGIIFQIGKMIGSVSLVFAPFIGKYGMATFTILLGVLSIVFSAAALKSGWKKVLAK”, the protein production entry is “failed”. For “MFKLVFKQYKCKSTSPDLTEVVKIDDCVVKGNDQEKSDNNIVQRLSISNVESLQTMPGVKSPKDWRTYTLTNHPGIIVIRNPFSERGRRYWSARCLRDFPRTPNIVNLNERLFDESVRSDWWKQLNLCSDGVEFQRIKSAMRWTTFGYHHNWDTKIYDEEMQSPFPEDLSSLCGLFAQALGYADFKPEAAIVNYYPVGSTLSGHTDHSEPNKSAPLFSFSFGQTAIFLIGGRSLEEKPTAIYLQSGDVMIMSGESRLCYHAVPRIIKTQASATLSLIIEDVDNADIKTRTIDKDLFHDVGNPQFWEPFSRYMDDSRININIRQVLNPGDVKL” the value was “failed”. For “MFKSVAKLGKSPIFYLNSQRLIHIKTLTTPNENALKFLSTDGEMLQTRGSKSIVIKNTDENLINHSKLAQQIFLQCPGVESLMIGDDFLTINKDRMVHWNSIKPEIIDLLTKQLAYGEDVISKEFHAVQEEEGEGGYKINMPKFELTEEDEEVSELIEELIDTRIRPAILEDGGDIDYRGWDPKTGTVYLRLQGACTSCSSSEVTLKYGIESMLKHYVDEVKEVIQIMDPEQEIALKEFDKLEKKLESSKNTSHEK” the value was “failed”; for “MFKTLEVKYMEDRVLDWAVYEKTAREMVAEGLVLLKNDNKALPLKQGETVSVFGRMQNHYYKSGTGSGGMVNVAKVVGILDALNECKDVNVNQKLAETYAAWDKEHPVELGLGWGQEPWSQAEMPVTEELVQEAAGESDSAIVIIARTAGEDKDNTLEKGAFMLTDIETDMLRLVRENFQKMVVLLNVGGLIDMSFLDTISPDACMYVWQGGMVGGYGVVDVLVGDVSPSGKLTDTIAYDIKDYPAYDNFGGEERNFYAEDIYVGYRYFETFAKDKVRYPFGYGLSYTDFKIGVKHASLDFEKGVANICVKVTNTGKRLGKEVVQVYGEMPQGRLGKPSRVLIDFAKTKELVPGLSDELKFEIPLDRMASFDDSGATGHRNCYVLEAGDYTIHVGNSIRNTTECLFFELAETVELQKLQEALAPYEKFDRMKPFCDENGRMLIEYEETPLVTVDMYDRREQELPEEIPVTGDKGITLLDVREGKATMDEFIAQFDDEDLACFVRGEGMGSSLVTAGTASAFAGVSPNLIAHKIPSVCCDDGPSGMRLDSGMKAFSLPNGTLCGCSFNKELNTRLYALLGLEMTANKVEVLLGPGMNIHRHPLNGRNFEYFSEDPYLTGSIATAQLEGLKSSGVSGTIKHFCGNNQEYHRHTMDSVISQRALREVYLKGFEIAVKSGYADSVMTTYGLVNGLYTAGSYDLNTTILRNEWGFTGVVMTDWWASINRRGMEPDANDFATMIQAQNDMYMCCPDGSKNMGGDNVLEALHDGRILRAELQRIAKNVCSFAMDTNAFKRLVGEPVEIEIINRPKQADDFSIDDVEYINVDRDILIDLTEKASTADTNYVIALDVEHPGEYDVSLRGSSTLEKLAQLPCTLFFNGFPVSNFTFNGTDGKDVVIRKEVKFYSRFNVLRLYVKSNGLDLKDIKFSFEKEF”, “failed”.

Consider “MFLKIPFKILRLATAYVRIRVKNIILKLKLVFGKNVFIGSNVVIDPGYHWLISIGNNSAITNGVTILSHDGSLSRHTGYTKIGKVSIGSNTFIGVKSIILPGVSIGNNVIIGAGSVVTKDIPDNSVAIGNPAVVVGSIKDYINKHKRMIRTSEVYECQSLLKDNIRDFKGEIGYVKTNFENHEDL”, for which the protein production entry is listed as “failed”.

With “MFLKKKLSAGKSVVGTMLNLVYNPDIVRIYAEAGLDYFIVDCEHAAYTFREINHLVSVAKNAGVSVLVRIPQVDRAHVQRLLDIGAEGFMIPGVQSAETMRETVRLAKYPPLGERGVGGSIVTDFKPVNWAEWVQERNDEIFIMAQIEHVKAVEDIDSILAVQGVDAVIFGPRDLSNDLGIIGQTEHPKVYECYEKVYRAADRQGVVKGFFTAADAAKMGWAVERGAQMLLWSGDVAALQTYTAKGVKTIKELPGFNP”, the protein production entry is recorded as “not failed”. The entry for “MFLLSGDPCFKTPPSTAKSISIPGQDSSLQLTCKGGGTSSGGSSTNSLTGSRPPKARPTILSSGLPEEPDQNLSSPEEVFHSGHSRNSSYASQQSKISGYSTEHSRSSSLSDLTHRRNTSTSSSASGGLGMTVEGPEGSEREHRPPEKPPRPPRPLHLSDRSFRRKKDSVESHPTWVDDTRIDADAIVEKIVQSQDFTDGSNTEDSNLRLFVSRDGSATLSGIQLATRVSSGVYEPVVIESH” is “failed”; for “MFLPKFNPIRSFSPILRAKTLLRYQNRMYLSTEIRKAIEDAIESAPVVLFMKGTPEFPKCGFSRATIGLLGNQGVDPAKFAAYNVLEDPELREGIKEFSEWPTIPQLYVNKEFIGGCDVITSMARSGELADLLEEAQALVPEEEEETKDR” it is “failed”. As to “MFLRTQARFFHATTKKMDFSKMSIVGRIGSEFTEHTSANNNRYLKYSIASQPRRDGQTNWYNITVFNEPQINFLTEYVRKGALVYVEADAANYVFERDDGSKGTTLSLVQKDINLLKNGKKLEDAEGQENAASSE”, the protein production entry is on record as “failed”.

For “MFNKISLEIMKRSALTLMPTVLALAVGMAMPAVQAAINSDASVVGTESQWWNTYKVTLTNNGNQPVELRDASIAFDTNLSLSTPSWSAQGISYPSMSFSSNAQGSVFSNRLTLSFDQGSWVKTQLLPGASIDLTLGVSGVLELSLLQSTIALETDGEVEPGEPEISLELASPVQGAEFIEGQTVAIVANVTATNTTVKTVTFLVDGEQIALLEQAPFQASWTAAGEGAHSIKAIVEDASGLLKEQAVRITVKAEEIDPPVEPEVPVAPVIELTNPRNGQSVFLGKVTTLAANATDENNDLTAVEFLVNGESIGRVTQAPYQLAWTPVALGQYTIEAIAYDAAGHQTQTPMVTVNAKEMGTGNLSCDIKQIYREDGTECMGDDHPRRIIGYYTSWRTGKNGLPAYLAGDLPWEKLTHINYAFASINKSDFSMQVDDSATKMTWENVPGAEMDPSLPYQGHFNLLSKFKKQYPDVKTLISVGGWAETGGFYPMTTDLASCSVNMEGIKAFNKSAVDFIRQYDFDGVDIDYEYPSSMKDSGNPVDFEQSNKCRGQLWDNYMVMMTELRKALDKAGEEDGRRYMLTIASPSSAYLLRGMQDFAMQDVLDYVNIMSYDLHGTWNEFVGPQAALFDDGKDAELAKWGVYTTAEYQGIGYLNQAWTHHFFRGAFKPSQINMGIPYYTRGWQGVSGGDKGLWGRAVEPNQSSCPEGTTVCGWGAEGTDNIWHDVDANGNEIKAGVVPMWHAMNLMHAEKLGIDGMPSYGPAWGMDPNNPKHLIEGKYERVWSQELQTAWLWNDTKKVFLSIEDKDSLKPKLDYIVDNGLGGMMIWEMAGDYSYDAVKREYVIGSDMTSYAHEVFAAAKPMDIRHNDLPQPDSVIDVTVSTTEWPEGDSNYPINPKLVFTNHSNVAIPGGSTIEFLMPTSSGDIVKDWSGAGLKVIESGHTGSNFSVNGEKKLFHKVAVTLRSTETIPAGGEYSVDMVYYTPVSGVANGVRFIVGNETVGLKKDFPTLPAFEGATDGGNGNEGGAGQSCADAGINPNGLKVYPEFPRGDHAAGGDQLIHNGSVWQANWWTNSTPSSADASWKAVCKI”, the protein production entry is reported as “failed”. Turning to “MFNKKKTIASLIVLSSLASQIALTPISALADTHDTNNIALLQNTNENVPYKYTSTLTFPTLTNQTQEDYKLEIKLALPSGMNYTDLQVSVGGEDITNQVGTTSFDNSTNTVTFKFDKVTSWDSLSKAKVKFDWKTSYSGEGGEAKIDSLVATATATSEDKAGNKSTSTGSLKPKDISAPVVKAEETEITYSPGSDVTEEQFLTDIHASVTDNYDSTISLTSNFTSAVNLAVSGDYSVNVQATDKAGNVSNTLNVTVHVSTPAPVAGANITVNHLDSNGNKIAESDTLTGVVNSNYQSESKKITGYTLETTPTNATGTFTDTPQTVDYIYKKDTVTPTPITVNPVEPVKPVNPVVNKPVTVKPANDNTNPSTSNSVEKTTYSSLPTTGDTDQSKSSTIFGALLLLISAPLLLFKKK”, the protein production result is recorded as “failed”. For “MFNKKPLADTTARRPSTGAQAKIYSRDNVARYSERARQRRRSHTIRHVALIVVLGVLLSATTAAGLWFATIMGKLGDSNVITDNLRRVLVDTDEAKDPFYVLLLGTDGRPGEDTYRADSIILARIDPTQKQATLISVPRDTKVEYKGETMKINACHTVGGAEAMVEAVNELCGVQISHYAEVSFDGMQALIDSVGGIDINATDDVDDPEHLDIKITAGQQHMDGATALTYARCRYTYADGDYTRMRHQRQVLGALANQILNNFDATKIFGLVNSLSDMLVTDMSVQDIVATVNAMRGMDVDGIYSANLPSYADDSTMIDGVSYVFVYEDELKEMMERVDAGKDPKGPNTMGLSDGSSSTIGDLNNNTSDDYANGTATSSVSSDDSDDSSDSSDSDYYEEPTGDGNGYEANY” the value was “failed”; for “MFNKVAFMNIPMMDLIMIVIAIIITIGSFLFIAYLIFKYSKIKKQVKIIREVKINLPKMLKSNMIKNSFLIISLLCFYFGMLYIAGELVISHILFIAICWIVVFLYIIIKGETRGYICEEGLLVSGVLYSWKEFKDVKIEDNYIILTTPIHKIVIKKEKGVENILKNYLKRN”, “failed”. For “MFNKVIMVGRLTRNVELKYLPSGSAAATIGLATSRRFKKQDGTLGEEVCFIDARLFGRTAEIANQYLSKGSSVLIEGRLTYESWMDQTGKKNSRHTITADSLQFMDKKSDNPQANAMQDSIMHENSNNAYPANHNAPSQDPFNQAYAQNAYAKENLQAQPSKYQNSVPEINIDEEEIPF” the value was “failed”.
